Data as given in patent US6183967, “Nucleic acid ligand inhibitors to DNA polymerases” (NeXstar Pharmaceuticals).
Numbering of substitutions follows the chain as printed.

Assays:
[1] = biological target: T1, Taq DNA polymerase (Thermus aquaticus, UniProt P19821 P19821:1-832); assay: FP filter; 55C; IT50 41C; conditions: tags: rTaq, 94 kDa, Roche Molecular Systems; label: end-labeled
[2] = biological target: T1, Taq DNA polymerase; assay: FP filter; Tris buffer 55C; 5 pM at 40C; Tricine 4.6 (40C), 36 (55C) pM; IT50 54.8C; conditions: tags: rTaq, 94 kDa, Roche Molecular Systems; label: end-labeled
Procedure: (§1) Binding interactions of individual sequences with Taq polymerase was measured by nitrocellulose filter binding at 55° C. […] Clones 6 (SEQ ID NO:78), 22 (SEQ ID NO:81) and 28 (SEQ ID NO:87) all show high-affinity binding to Taq polymerase at 55° C. as characterized by their K_d values in the low picomolar range.
(§2) The binding analysis shown in FIGS. 4A–E were performed in the Tris buffer at 55° C. […] (Table 7).

[3] = biological target: T1, Taq DNA polymerase; assay: inhibition; 45C; conditions: tags: rTaq, 94 kDa, Roche Molecular Systems; label: end-labeled
Procedure: (§3) As set forth in Table 12, the $IT50$ values of truncated ligands TQH6-Tr, TQH22-Tr and TQH28-Tr were decreased by 5–9° C. upon truncation.
(§4) Measurement of $IC50$ Values. $IC50$ values (the concentration of inhibitor required to produce 50% of the product in the assay) were obtained using hairpin extension assays. In a typical inhibition assay, a 20 μL reaction contained either 0.25 (0.04) pmoles of Taq polymerase (5 U) (1 U), 0.125 pmoles of Tth polymerase (2.5 U) or 0.05 pmoles of TZ05 polymerase (1 U), oligonucleotide inhibitor (at varying concentrations), […] dNTPs in either Tris or Tricine buffer (Taq and Tth pol) or TZ05 buffer (TZ05 pol). Gel purified, 5'-end-labeled hairpin DNA substrate (DNA-HP; 5'-[…]-3' (SEQ ID NO:6)) was then added to a final concentration of 250 nM and the reactions were incubated for a given time at the desired temperature as indicated in the figure legends (30 minutes for TZ05 pol). The reaction was stopped by adding 5 μL of 0.5 M EDTA (pH 8.0) followed by formamide gel loading buffer. Extension products were resolved on 10% polyacrylamide gels under denaturing conditions and quantitated by phosphorimager. The amount of products formed in the presence of inhibitor was normalized to the product formed in the absence of an inhibitor to obtain the percent of product.

[4] = biological target: T1, Taq DNA polymerase; assay: FP filter; printed as >>1000; 55C; IT50 <40C; conditions: tags: rTaq, 94 kDa, Roche Molecular Systems; label: end-labeled
Procedure: as §1

[5] = biological target: T1, Taq DNA polymerase; assay: FP filter; 55C; IT50 53.7C; conditions: tags: rTaq, 94 kDa, Roche Molecular Systems; label: end-labeled
Procedure: as §1

[6] = biological target: T1, Taq DNA polymerase; assay: FP filter; Tm 51C; conditions: tags: rTaq, 94 kDa, Roche Molecular Systems; stem-loop
Procedure: Room Temperature. To assess the affinity of oligonucleotide libraries and individual ligands the nitrocellulose filter binding technique was used. Briefly, gel-purified ^32P ss-DNA pools labeled at the 5' end were suspended in the binding buffer, heated to 80° C., chilled on ice and then brought to room temperature. The DNA (5–10 pM) was then incubated for 15 minutes at room temperature with varying amounts of the target polymerase in 50 µL of the appropriate binding buffer containing 0.1 µg of tRNA and 0.01% hSA. The DNA concentrations were kept lower than 100 pM to ensure equilibrium in the presence of excess protein concentrations. […] The amount of DNA bound to the filters was quantitated by measuring the radioactivity of the filters by liquid scintillation counting. The quantity of DNA bound to filters in the absence of protein was used for background correction. […]
[1]The boxed region denotes the conserved sequence element with the predicted stem-loop structure identified in the Family I sequences; vertical lines signify Watson-Crick type base pairing; circles show an uncommon G-T base pair. [2]K_d values were measured by the nitrocellulose filter binding technique described in Example 1. [3]Melting transitions (T_m) were measured in a PCR buffer containing 10 mM Tris-HCl, 50 mM KCl, 2 mM MgCl_2, pH 8.3, at a 1° C./min temperature ramp.

[7] = biological target: T1, Taq DNA polymerase; assay: FP filter; 55C; IT50 44.6C; conditions: tags: rTaq, 94 kDa, Roche Molecular Systems; label: end-labeled
[8] = biological target: T1, Taq DNA polymerase; assay: FP filter; 55C; IT50 52.3C; conditions: tags: rTaq, 94 kDa, Roche Molecular Systems; label: end-labeled
[9] = biological target: T1, Taq DNA polymerase; assay: inhibition; 45C; IT50 56.1C; conditions: tags: rTaq, 94 kDa, Roche Molecular Systems; label: end-labeled
Procedure: as §3, §4

[10] = biological target: T1, Taq DNA polymerase; assay: FP filter; Tris buffer 55C; 3.8 pM at 40C; Tricine 5.6 (40C), 18 (55C) pM; IT50 56C; conditions: tags: rTaq, 94 kDa, Roche Molecular Systems; label: end-labeled
Procedure: as §1, §2

[11] = biological target: T1, Taq DNA polymerase; assay: FP filter; Tris buffer 55C; 5 pM at 40C; Tricine 9.4 (40C), 116 (55C) pM; IT50 52C; conditions: tags: rTaq, 94 kDa, Roche Molecular Systems; label: end-labeled
Procedure: as §1, §2

[12] = biological target: T1, Taq DNA polymerase; assay: FP filter; 55C; IT50 52C; conditions: tags: rTaq, 94 kDa, Roche Molecular Systems; label: end-labeled

T1 sequence (P19821 whole entry, one chain of several): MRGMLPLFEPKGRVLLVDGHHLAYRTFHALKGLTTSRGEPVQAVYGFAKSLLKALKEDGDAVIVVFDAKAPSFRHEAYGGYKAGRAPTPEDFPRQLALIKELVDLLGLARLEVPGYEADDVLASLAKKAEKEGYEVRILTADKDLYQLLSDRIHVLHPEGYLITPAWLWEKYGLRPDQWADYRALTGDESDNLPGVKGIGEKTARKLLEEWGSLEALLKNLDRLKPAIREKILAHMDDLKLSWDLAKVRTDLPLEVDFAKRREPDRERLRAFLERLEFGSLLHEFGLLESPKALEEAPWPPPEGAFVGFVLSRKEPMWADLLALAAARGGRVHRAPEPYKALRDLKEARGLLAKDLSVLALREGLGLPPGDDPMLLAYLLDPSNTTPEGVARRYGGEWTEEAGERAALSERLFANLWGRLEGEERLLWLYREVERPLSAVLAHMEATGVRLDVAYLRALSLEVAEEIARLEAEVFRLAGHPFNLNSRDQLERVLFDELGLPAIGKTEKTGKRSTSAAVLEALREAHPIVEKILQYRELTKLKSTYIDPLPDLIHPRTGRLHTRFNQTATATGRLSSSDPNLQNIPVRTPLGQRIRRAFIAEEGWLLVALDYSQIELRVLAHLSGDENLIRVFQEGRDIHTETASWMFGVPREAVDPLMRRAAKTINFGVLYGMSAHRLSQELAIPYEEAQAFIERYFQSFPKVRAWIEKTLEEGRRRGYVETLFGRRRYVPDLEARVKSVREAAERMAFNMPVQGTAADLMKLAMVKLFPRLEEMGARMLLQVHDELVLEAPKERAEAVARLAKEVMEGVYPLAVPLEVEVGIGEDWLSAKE

B1: ligand 20 (ssDNA)
DNA: TTCTCGGTTGGTCTCTGGCGGAGCGATCAGACACGAAACATTGCGGACTTTTGTCTTGTGTATGATTCGCTTTTCCC
- Kd [1]: 0.105 nM

B2: ligand 6 (TQH6) (ssDNA)
DNA: TTCTCGGTTGGTCTCTGGCGGAGCGAATCATACGAAGACATTCCAACGTTTTGTCTTGTGTATGATTCGCTTTTCCC
- Kd [2]: 0.0085 nM
- IC50 [3]: 30 nM

B3: ligand 18 (ssDNA)
DNA: TTCTCGGTTGGTCTCTGGCGGAGCATACACGACGTCATTCTAGCGTTTTGTCTTGTGTATGATTCGCTTTTCCC
- Kd [4]: > 1 nM

B4: ligand 19 (ssDNA)
DNA: TTCTCGGTTGGTCTCTGGCGGAGCGAATCGGACATCAAGGGTTCCAGCAGTGCTTCTTGTGTATGATTCGCTTTTCCC
- Kd [5]: 0.0112 nM

Binder: AAGACCAGACAATGTACAGTATTGGCCTGA (ssDNA, [none]) [Trnc.A-30 (30-mer)]
- Kd [6]: 0.6 nM

B5: ligand 10 (ssDNA)
DNA: TTCTCGGTTGGTCTCTGGCGGAGCGGATCAGACACGAAACATTGCGGACTTTTGTCTTGTGTATGATTCGCTTTTCCC
- Kd [7]: 0.03 nM

B6: ligand 15 (ssDNA)
DNA: TTCTCGGTTGGTCTCTGGCGGAGCATGCACAGCGACATTCTCAGCGTTTTGTCGTCTTGTGTATGATTCGCTTTTCCC
- Kd [8]: 0.0138 nM

B7: ligand 22 (TQH22) / TZ3 (ssDNA)
DNA: TTCTCGGTTGGTCTCTGGCGGAGCATACACGACGTCATTCTAGCGTTTTGACGTCTTGTGTATGATTCGCTTTTCCC
- IC50 [9]: 37 nM
- Kd [10]: 0.014 nM

B8: ligand 28 (TQH28) (ssDNA)
DNA: TTCTCGGTTGGTCTCTGGCGGAGCAGGAGCAAGAATCATTCTTAGCGTTTTGATTCTTGTGTATGATTCGCTTTTCCC
- IC50 [3]: 37 nM
- Kd [11]: 0.0135 nM

B9: ligand 36 (Taq selection) (ssDNA)
DNA: B8 DNA with G27A
- Kd [12]: 0.031 nM
